Measurements taken from patent publication US20030235534A1, “Methods and compositions for radioimmunotherapy of brain and CNS tumors” (priority 2002, published 2003).
*1 amine or outer side, *2 acyl side, *3 side chain or, on linkers, in order; H or OH if unused. Where a SMILES comes first, the peptide text is derived from it. Side-chain parts run from the residue outwards. [ ]: non-standard residue; d: D form. The star is where a group is joined. DOTA = O=C(O)CN1CCN(CC(=O)O)CCN(CC(=O)*)CCN(CC(=O)O)CC1; NH(2-(imidazol-4-yl)ethyl) = c1ncc(CCN*)[nH]1; Suc = O=C(CCC(=O)[*:2])[*:1]

Key:
glioblastome multiforme = experiment: Treatment of a brain cancer patient with premixed bispecific antibody-mediated radioimmunotherapy using a beta-emitting radionuclide; details: 1:1 molar mixture with bispecific antibody of Example 1; 12 mCi Y-90, 10 mg antibody, into reservoir, 4 days post surgery
Experimental: A patient with recently-diagnosed glioblastome multiforme in their left hemisphere, which is limited to a focal lesion, undergoes a gross total resection, with placement of a Rickham reservoir and catheter into the surgically-created resection cavity. Placement of the catheter is confirmed by an MRI scan 24 h later. […] The reservoir and catheter are flushed after the antibody injection.

[1] = test system: inoperable brain tumor in the pons; experiment: Treatment of a brain cancer patient with pretargeted bispecific antibody-mediated radioimmunotherapy using an alpha-emitting radionuclide (intravenous)
Experimental: This preparation has an In-111 label to confirm targeting to the brain tumor by gamma camera imaging 24 h later. After two more days, to allow for adequate localization of the bispecific antibody to the tumor and clearance from the body, the Ac-225-IMP 241 of example 7, above, is also injected intravenously, at a dose of 1 mCi.

glioblastoma multiforme = experiment: Treatment of a brain cancer patient with pretargeted bispecific antibody-mediated radioimmunotherapy using an alpha-emitting radionuclide (hapten into surgical cavity)
[2] = 1 mCi i.v. after 30 mg i.v. humanized anti-tenascin x anti-HSG bispecific antibody, 8 weeks later

## NC(=O)[C@H](CCCCNC(=O)CNC(=O)CCC(=O)NCCc1cnc[nH]1)NC(=O)[C@@H](Cc1ccc(O)cc1)NC(=O)[C@H](CCCCNC(=O)CNC(=O)CCC(=O)NCCc1cnc[nH]1)NC(=O)[C@H](Cc1ccccc1)NC(=O)CN1CCN(CC(=O)O)CCN(CC(=O)O)CCN(CC(=O)O)CC1 (90Y complex, metal not drawn) [Y-90-IMP 241] ({DOTA}-FK([Gly-Suc-NH(2-(imidazol-4-yl)ethyl)])[dY]K([Gly-Suc-NH(2-(imidazol-4-yl)ethyl)])-NH2)
Glioblastome multiforme
  tolerability of radioimmunotherapy procedure: tolerates the radioimmunotherapy procedure well

## NC(=O)[C@H](CCCCNC(=O)CNC(=O)CCC(=O)NCCc1cnc[nH]1)NC(=O)[C@@H](Cc1ccc(O)cc1)NC(=O)[C@H](CCCCNC(=O)CNC(=O)CCC(=O)NCCc1cnc[nH]1)NC(=O)[C@H](Cc1ccccc1)NC(=O)CN1CCN(CC(=O)O)CCN(CC(=O)O)CCN(CC(=O)O)CC1 [Ac-225-IMP 241, metal not drawn] ({DOTA}-FK([Gly-Suc-NH(2-(imidazol-4-yl)ethyl)])[dY]K([Gly-Suc-NH(2-(imidazol-4-yl)ethyl)])-NH2)
[1]; [2]
  granulocytes (ANC) and platelets: within the normal range
  hematological toxicity: no evidence of hematological toxicity
Glioblastoma multiforme; 1 mCi into surgical cavity two days after 30 mg i.v. humanized anti-tenascin x anti-HSG bispecific antibody
  adverse events from therapy: does not experience any adverse events

## Cn1nnc2c(C(N)=O)ncn2c1=O [temozolomide, reference compound]
[1]; temozolomide therapy given three months after the 3-month follow-up of radioimmunotherapy
  additional reduction of the tumor: 25%
Glioblastoma multiforme; given after radioimmunotherapy
  tolerability of chemotherapy regimen: tolerated well
